Assay results from patent US20250340857A1 (SEISMIC THERAPEUTIC, published 2025).

Tests used:
Human IgE antibody = Human IgE antibody (human); assay: cell-based or functional assay
IgG1 = assay: cell-based or functional assay

B1: FP13 (Fc fusion)
chain: DKTHTCPPCPAPEAAGAPSVFLFPPKPKDTLMISRTPEVTCVVVDVSHEDPEVKFNWYVDGVEVHNAKTKPREEQQNSTYRVVSVLTVLHQDWLNGKEYKCKVSNKALKAPIEKTISKAKGQPREPQVYTLPPSRDELTKNQVSLTCLVKGFYPSDIAVEWESNGQPENNYKTTPPVLDSDGSFFLYSKLTVDKSRWQQGNVFSCSVMHEALHNHYTQKSLSLSPGGGGSGGGGSGGGGSTALGRRKAEDRIKETLWADGVKIDEKDFEHIKSSHEDYFAVEYGKGSGYYDVNKKMDSEDSALCVGAVVTNMFHWWVDQNRENIEKFKKQDPENNGVMKFEGVKEATVDELNHFYRDNRDNYADQSRFFDLIKKHFGNKALNPEELFELYFNGFYYGSSHRYIEDNEPAQNNLFSKVLENNKLLNPERSYGIDGFSNNVINALKSHKVLGLVHTTPLRYRHIISMWGADIDQDGKVKAIYVTDSDDREITFNDNSKRRIGMIRYDVLVDDNGNIRFTGKGATHKEEGAIYAGLYSLSRGDEVWEDYFKKYPEVQENL
B1 was tested. Which “EC50 CE-SDS IgE” value (Human IgE antibody) did it give?
Its value is 31.9 nM.

What about the “EC50 CE-SDS IgG1” value (IgG1) of the same binder?
The value was 21300 nM.

B2: FP19 (Fc fusion)
chain: DKTHTCPPCPAPEAAGAPSVFLFPPKPKDTLMISRTPEVTCVVVDVSHEDPEVKFNWYVDGVEVHNAKTKPREEQQNSTYRVVSVLTVLHQDWLNGKEYKCKVSNKALKAPIEKTISKAKGQPREPQVYTLPPSRDELTKNQVSLTCLVKGFYPSDIAVEWESNGQPENNYKTTPPVLDSDGSFFLYSKLTVDKSRWQQGNVFSCSVMHEALHNHYTQKSLSLSPGGGGSGGGGSGGGGSTALGRRKAEDRIKETLWADGVKIDEKDFEHIKSSHEDYFAVEYGKGSGYYDVNKKMDSEDSALCVGAVVTNMFHWWVDQNRENIEKFKKQDPENNGVMKFEGVKEATVDELNHFYRDNRDNYADQSRFFDLIKKHFGNKALNPEELFELYFNGFYYGSSHRYIEDNEPAQNNLFSKVLENNKLLNPERSYGIDGFSNNVINALKSHKVLGLVYTTPLRYRHIISMWGADIDQDGKVKAIYVTDSDDREITFNDNSKRRIGMIRYDVLVDDNGNIRFTGKGATHKEEGAIYAGLYSLSRGDEVWEDYFKKYPEVQENL
With B2 as the binder, how does the “EC50 CE-SDS IgE” value (Human IgE antibody) read?
Its value is 21.8 nM.

And the “EC50 MSD IgE” value (Human IgE antibody)?
The value was 1.2 nM.

What about the “EC50 CE-SDS IgG1” value (IgG1) of the same binder?
The value was 7240 nM.

B3: FP191 (Fc fusion)
chain 1: DKTHTCPPCPAPEAAGAPSVFLFPPKPKDTLMISRTPEVTCVVVDVSHEDPEVKFNWYVDGVEVHNAKTKPREEQQNSTYRVVSVLTVLHQDWLNGKEYKCKVSNKALKAPIEKTISKAKGQPREPQVYTLPPSRDELTKNQVSLWCLVKGFYPSDIAVEWESNGQPENNYKTTPPVLDSDGSFFLYSKLTVDKSRWQQGNVFSCSVMHEALHNHYTQKSLSLSPGAPAPAPAPAPAPAPTALGRRKAEDRIKETLWADGVKIDEKDFEHIKSSHEDYFAVEYGKGSGYYDVNKKMDSEDSALCVGAVVTNMFHWWVDQNRENIEKFKKQDPENNGVMKFEGVKEATVDELNEFYRDNRDNYADQSRFFDLIKKHFGNKALNPEELFELYFNGFYYGSSHRYIEDNEPAQNNLFSKVLENNKLLNPERSYGIDGFSNNVINALKSHKVLGLVYTTPLRYRHIISMWGADIDQDGKVKAIYVTDSDDREITFNDNSKRRIGMIRYDVLVDDNGNIRFTGKGATHKEEGAIYAGLYSLSRGDEVWEDYFKKYPEVQENL
chain 2: DKTHTCPPCPAPEAAGAPSVFLFPPKPKDTLMISRTPEVTCVVVDVSHEDPEVKFNWYVDGVEVHNAKTKPREEQQNSTYRVVSVLTVLHQDWLNGKEYKCKVSNKALKAPIEKTISKAKGQPREPQVYTLPPSRDELTKNQVSLSCAVKGFYPSDIAVEWESNGQPENNYKTTPPVLDSDGSFFLVSKLTVDKSRWQQGNVFSCSVMHEALHNHYTQKSLSLSPG
B3 was tested. Which “EC50 CE-SDS IgE” value (Human IgE antibody) did it give?
Its value is 1.51 nM.

And the “EC50 MSD IgE” value (Human IgE antibody)?
The value was 0.555 nM.

B4: FP16 (Fc fusion)
chain: DKTHTCPPCPAPEAAGAPSVFLFPPKPKDTLMISRTPEVTCVVVDVSHEDPEVKFNWYVDGVEVHNAKTKPREEQQNSTYRVVSVLTVLHQDWLNGKEYKCKVSNKALKAPIEKTISKAKGQPREPQVYTLPPSRDELTKNQVSLTCLVKGFYPSDIAVEWESNGQPENNYKTTPPVLDSDGSFFLYSKLTVDKSRWQQGNVFSCSVMHEALHNHYTQKSLSLSPGGGGSGGGGSGGGGSTALGRRKAEDRIKETLWADGVKIDEKDFEHIKSSHEDYFAVEYGKGSGYYDVNKKMDSEDTALCVGAVVTNMFHWWVDQNRENIEKFKKQDPENNGVMKFNGVKEATVDELNHFYKEYQSNKYADQSRFFDLIKKHFGNKALNPEELFELYFNGFYYGSSHRYIEDNKPAQNNLFSKVLENNKLLNPERSYGIDGFSNNVINALKSHKVLGLVHTTPLRYRHIISMWGADIDQDGKVKAIYVTDSDDREITFNDNSKRRIGMIRYDVLVDDNGNIRFTGKGATHKEEGAIYAGLYSLSRGDEVWEDYFKKYPEVQENL
Which “EC50 CE-SDS IgE” value (Human IgE antibody) does the source give for B4 here?
The value was 47 nM.

And the “EC50 CE-SDS IgG1” value (IgG1)?
Its value is 8720 nM.
